Reference: the supplement of paper PMC10065799, “High-throughput profiling of sequence recognition by tyrosine kinases and SH2 domains using bacterial peptide display” (eLife, 2023)

Key:
Grb2 SH2 = Grb2 SH2 (UniProt P62993); test: SH2 binding enrichment of the phosphorylated peptide, bacterial display (enrichment ratio); higher = better substrate or ligand; peptides without Tyr show the background
c-Src SH2 = test: as above
SHP2-C SH2 = test: as above
MERTK = MERTK (UniProt Q12866); test: phosphorylation enrichment, bacterial display (enrichment ratio); higher = better substrate or ligand; peptides without Tyr show the background
Hck = Hck (UniProt P08631); test: as above
Fyn = Fyn (UniProt P06241); test: as above
c-Abl (mouse) = test: as above
EPHB2 = EPHB2 (UniProt P29323); test: as above
EPHB1 = EPHB1 (UniProt P54762); test: as above
Fes = Fes (UniProt P07332); test: as above
FGFR3 = FGFR3 (UniProt P22607); test: as above
FGFR1 = FGFR1 (UniProt P11362); test: as above
Fer (mouse) = test: as above
c-Src = test: as above
AncSZ = test: as above
Jak2 = Jak2 (UniProt O60674); test: as above
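For SH2 binding enrichment of the phosphorylated peptide, bacterial display in this document: peptide library displayed on the E. coli surface as eCPX fusions, selected cells deep-sequenced, score is each peptide's frequency after selection divided by its frequency in the input.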
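For phosphorylation enrichment, bacterial display in this document: 11-residue human phosphosite peptides and single-mutation variants displayed on the E. coli surface, counted by deep sequencing, each peptide's frequency after selection divided by its frequency in the unselected input library; frequency after pTyr selection over input frequency; kinase dosed for 20-30% of maximal phosphorylation in three min.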

Chain of FGFR1 (P11362 whole entry, looked up): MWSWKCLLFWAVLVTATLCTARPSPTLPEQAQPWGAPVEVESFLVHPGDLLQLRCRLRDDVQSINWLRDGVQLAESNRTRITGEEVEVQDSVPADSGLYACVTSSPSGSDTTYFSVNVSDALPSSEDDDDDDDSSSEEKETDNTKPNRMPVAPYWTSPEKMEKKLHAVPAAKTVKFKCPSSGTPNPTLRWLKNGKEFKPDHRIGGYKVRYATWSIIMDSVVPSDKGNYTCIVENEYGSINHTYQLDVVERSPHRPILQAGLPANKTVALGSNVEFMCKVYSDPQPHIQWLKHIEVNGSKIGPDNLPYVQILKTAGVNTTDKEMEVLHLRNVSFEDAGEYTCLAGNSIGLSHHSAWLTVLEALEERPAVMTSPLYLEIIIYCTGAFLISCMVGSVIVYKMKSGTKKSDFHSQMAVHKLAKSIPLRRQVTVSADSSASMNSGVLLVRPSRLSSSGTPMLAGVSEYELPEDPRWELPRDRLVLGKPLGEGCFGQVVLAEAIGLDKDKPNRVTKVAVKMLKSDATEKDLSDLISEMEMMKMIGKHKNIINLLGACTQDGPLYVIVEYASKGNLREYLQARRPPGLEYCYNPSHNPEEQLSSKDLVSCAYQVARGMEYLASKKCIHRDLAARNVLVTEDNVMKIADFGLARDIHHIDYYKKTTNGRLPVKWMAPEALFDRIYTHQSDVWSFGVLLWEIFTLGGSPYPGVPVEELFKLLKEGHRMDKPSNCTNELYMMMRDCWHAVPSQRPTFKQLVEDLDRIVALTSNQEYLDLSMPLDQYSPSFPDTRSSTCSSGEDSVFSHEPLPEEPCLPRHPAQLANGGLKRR
Chain of Hck (P08631 whole entry, looked up): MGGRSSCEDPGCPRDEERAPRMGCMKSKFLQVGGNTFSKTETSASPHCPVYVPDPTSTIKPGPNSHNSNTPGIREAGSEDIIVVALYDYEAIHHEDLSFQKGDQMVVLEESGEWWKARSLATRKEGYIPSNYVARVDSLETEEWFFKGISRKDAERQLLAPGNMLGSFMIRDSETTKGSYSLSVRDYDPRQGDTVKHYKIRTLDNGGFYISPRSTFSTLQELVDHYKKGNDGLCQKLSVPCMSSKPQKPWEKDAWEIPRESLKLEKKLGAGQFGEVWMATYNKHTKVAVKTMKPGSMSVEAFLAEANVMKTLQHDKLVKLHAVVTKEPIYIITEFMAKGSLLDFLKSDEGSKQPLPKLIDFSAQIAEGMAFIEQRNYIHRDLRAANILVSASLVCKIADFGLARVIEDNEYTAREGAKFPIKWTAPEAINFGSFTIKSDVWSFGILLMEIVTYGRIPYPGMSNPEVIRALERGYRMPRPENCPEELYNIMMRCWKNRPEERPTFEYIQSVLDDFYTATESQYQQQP
Chain of Fes (P07332 whole entry, looked up): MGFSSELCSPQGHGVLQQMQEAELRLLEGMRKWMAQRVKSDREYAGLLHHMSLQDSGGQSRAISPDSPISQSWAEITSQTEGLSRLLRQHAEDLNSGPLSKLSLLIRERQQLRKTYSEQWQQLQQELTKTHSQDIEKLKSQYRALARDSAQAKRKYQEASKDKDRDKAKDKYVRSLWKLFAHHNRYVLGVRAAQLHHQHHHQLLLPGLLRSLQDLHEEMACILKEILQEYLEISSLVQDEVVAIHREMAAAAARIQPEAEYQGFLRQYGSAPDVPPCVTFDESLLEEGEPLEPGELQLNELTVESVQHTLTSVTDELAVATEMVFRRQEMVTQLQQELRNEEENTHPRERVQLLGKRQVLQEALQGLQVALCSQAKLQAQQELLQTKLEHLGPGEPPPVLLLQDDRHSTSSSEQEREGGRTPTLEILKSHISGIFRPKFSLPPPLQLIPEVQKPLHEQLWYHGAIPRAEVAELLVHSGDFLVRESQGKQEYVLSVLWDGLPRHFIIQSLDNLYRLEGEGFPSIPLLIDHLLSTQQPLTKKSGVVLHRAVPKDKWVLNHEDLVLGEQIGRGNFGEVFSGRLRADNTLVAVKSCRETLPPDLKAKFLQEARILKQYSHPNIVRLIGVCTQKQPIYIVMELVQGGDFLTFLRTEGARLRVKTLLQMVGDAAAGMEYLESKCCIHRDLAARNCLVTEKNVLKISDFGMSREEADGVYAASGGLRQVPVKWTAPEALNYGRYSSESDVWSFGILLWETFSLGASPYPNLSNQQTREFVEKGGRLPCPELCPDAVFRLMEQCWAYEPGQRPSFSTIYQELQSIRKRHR
Chain of Fyn (P06241 whole entry, looked up): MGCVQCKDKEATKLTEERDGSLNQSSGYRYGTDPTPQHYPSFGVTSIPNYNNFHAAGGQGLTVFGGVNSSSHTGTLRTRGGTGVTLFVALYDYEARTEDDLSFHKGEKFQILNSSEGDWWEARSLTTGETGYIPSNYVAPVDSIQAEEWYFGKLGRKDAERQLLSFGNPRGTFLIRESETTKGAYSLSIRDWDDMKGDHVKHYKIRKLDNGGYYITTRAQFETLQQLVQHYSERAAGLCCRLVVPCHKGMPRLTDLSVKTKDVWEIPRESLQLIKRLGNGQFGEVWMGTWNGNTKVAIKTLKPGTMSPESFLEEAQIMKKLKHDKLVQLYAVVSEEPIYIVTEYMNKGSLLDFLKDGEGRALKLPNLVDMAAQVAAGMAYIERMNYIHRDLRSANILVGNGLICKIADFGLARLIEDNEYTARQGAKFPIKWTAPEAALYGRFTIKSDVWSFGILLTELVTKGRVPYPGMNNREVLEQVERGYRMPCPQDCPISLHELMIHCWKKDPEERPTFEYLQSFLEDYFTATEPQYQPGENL
Chain of MERTK (Q12866 whole entry, looked up): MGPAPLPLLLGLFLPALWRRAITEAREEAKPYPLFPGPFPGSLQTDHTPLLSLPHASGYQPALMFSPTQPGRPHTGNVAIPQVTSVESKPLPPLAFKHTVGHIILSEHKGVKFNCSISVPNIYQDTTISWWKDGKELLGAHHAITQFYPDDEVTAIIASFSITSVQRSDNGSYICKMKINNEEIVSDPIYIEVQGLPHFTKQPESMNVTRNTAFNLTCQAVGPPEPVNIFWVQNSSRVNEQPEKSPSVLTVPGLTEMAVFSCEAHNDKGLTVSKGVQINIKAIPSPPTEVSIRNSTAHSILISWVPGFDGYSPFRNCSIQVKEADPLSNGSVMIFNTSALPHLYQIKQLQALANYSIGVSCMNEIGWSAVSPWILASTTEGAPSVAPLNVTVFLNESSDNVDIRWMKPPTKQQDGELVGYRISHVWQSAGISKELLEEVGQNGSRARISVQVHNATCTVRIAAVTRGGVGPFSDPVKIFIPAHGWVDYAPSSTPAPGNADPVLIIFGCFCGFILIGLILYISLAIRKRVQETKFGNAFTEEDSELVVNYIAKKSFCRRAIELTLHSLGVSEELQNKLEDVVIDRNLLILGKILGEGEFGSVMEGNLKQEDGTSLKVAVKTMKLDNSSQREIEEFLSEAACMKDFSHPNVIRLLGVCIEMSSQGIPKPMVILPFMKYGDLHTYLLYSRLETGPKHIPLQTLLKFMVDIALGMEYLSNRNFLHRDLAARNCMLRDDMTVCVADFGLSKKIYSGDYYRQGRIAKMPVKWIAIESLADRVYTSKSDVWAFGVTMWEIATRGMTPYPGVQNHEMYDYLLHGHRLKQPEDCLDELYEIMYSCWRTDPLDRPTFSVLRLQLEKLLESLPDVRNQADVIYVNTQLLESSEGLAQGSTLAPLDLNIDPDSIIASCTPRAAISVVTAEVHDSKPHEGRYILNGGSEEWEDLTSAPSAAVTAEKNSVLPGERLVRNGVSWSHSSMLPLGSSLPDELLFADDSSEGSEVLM
Chain of EPHB1 (P54762 whole entry, looked up): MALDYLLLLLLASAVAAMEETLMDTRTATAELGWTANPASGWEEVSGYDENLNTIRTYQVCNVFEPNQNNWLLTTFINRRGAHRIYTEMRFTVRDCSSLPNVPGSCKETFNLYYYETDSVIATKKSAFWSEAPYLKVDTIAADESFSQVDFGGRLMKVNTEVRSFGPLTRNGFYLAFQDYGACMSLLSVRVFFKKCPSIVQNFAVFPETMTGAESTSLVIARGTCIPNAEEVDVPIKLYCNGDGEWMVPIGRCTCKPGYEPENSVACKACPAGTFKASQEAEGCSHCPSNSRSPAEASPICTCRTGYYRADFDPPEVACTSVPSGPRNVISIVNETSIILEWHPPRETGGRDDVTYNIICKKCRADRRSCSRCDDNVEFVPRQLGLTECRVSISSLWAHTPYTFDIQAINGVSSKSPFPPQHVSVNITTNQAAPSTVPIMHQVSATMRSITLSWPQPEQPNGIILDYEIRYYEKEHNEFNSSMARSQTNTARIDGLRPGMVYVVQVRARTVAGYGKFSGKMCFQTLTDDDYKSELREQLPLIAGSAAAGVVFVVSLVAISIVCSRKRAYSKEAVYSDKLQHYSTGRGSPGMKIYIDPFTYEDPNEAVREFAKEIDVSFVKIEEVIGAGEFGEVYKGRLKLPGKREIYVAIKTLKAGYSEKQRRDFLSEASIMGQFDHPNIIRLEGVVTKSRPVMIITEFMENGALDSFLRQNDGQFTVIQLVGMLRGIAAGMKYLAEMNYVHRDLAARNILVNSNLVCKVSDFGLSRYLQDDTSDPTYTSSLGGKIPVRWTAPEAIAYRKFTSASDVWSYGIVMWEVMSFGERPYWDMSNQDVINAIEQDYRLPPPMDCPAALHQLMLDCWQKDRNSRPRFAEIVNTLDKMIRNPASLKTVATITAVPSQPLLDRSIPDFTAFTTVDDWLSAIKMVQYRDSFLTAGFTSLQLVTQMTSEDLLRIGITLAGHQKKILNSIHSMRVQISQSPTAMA

Sequence	SH2 binding enrichment (Grb2 SH2)	SH2 binding enrichment (c-Src SH2)	SH2 binding enrichment (SHP2-C SH2)	phosphorylation enrichment (MERTK)	phosphorylation enrichment (Hck)	phosphorylation enrichment (Fyn)	phosphorylation enrichment (c-Abl (mouse))	phosphorylation enrichment (EPHB2)	phosphorylation enrichment (EPHB1)	phosphorylation enrichment (Fes)	phosphorylation enrichment (FGFR3)	phosphorylation enrichment (FGFR1)	phosphorylation enrichment (Fer (mouse))	phosphorylation enrichment (c-Src)	phosphorylation enrichment (AncSZ)	phosphorylation enrichment (Jak2)
NALAQYQEMEK [BBS4_Y395]	0.795	3.07	0.808	0.467	0.612	0.545	0.512	0.471	0.466	0.967	0.658	0.594	0.454	0.366	1.1	0.714
TFEFRYLEDQD [CNOT3_Y746_R750Q_YF]	0.908	0.602	0.865	0.643	0.622	0.506	0.997	0.44	0.646	1.44	0.903	0.497	0.438	0.597	1.89	1.92
DGFIDYAEFAK [MCFD2_Y138_YF]	0.829	0.397	0.753	0.468	0.48	0.674	0.728	0.718	0.793	1.23	0.647	0.522	0.456	0.675	1.13	1.16
RLPINYTTRRI [LAMA2_Y2894_G2889R]	0.76	0.471	0.636	0.663	0.534	0.35	0.638	0.519	0.433	0.602	0.839	0.743	0.289	0.626	0.873	0.547
LENSTYQFIHV [CRB1_Y760_R764H_YF]	0.94	0.456	0.652	10	8.87	3.24	1.56	2.92	9.73	2.22	4.82	7.91	24.8	4.21	1.77	1.19
TDLAFYLVREG [ASL_Y376_K380E_YF]	0.634	0.612	0.675	0.501	0.546	0.437	0.85	0.703	0.709	1.59	1.01	0.574	0.555	0.519	1.28	1.24
TFGVLYKARNK [CDK2_Y19_V18L_YF]	0.828	0.49	0.423	0.343	0.561	0.421	0.487	0.599	0.592	0.906	0.586	0.436	0.536	0.424	0.838	0.796
LDFPEYNGVDR [CASQ1_Y43_D44N]	0.541	0.975	0.646	2.17	1.16	1.43	1.95	1.04	1.09	3.29	1.61	0.986	1	2.17	2.84	3.51
RLKAKYAAATG [GLI3_Y933]	0.811	0.511	0.698	0.414	0.464	0.379	0.601	0.526	0.421	0.611	0.395	0.36	0.486	0.529	0.64	0.692
YGMQLYQNYMH [GRB14_Y347]	6.36	1.6	1.22	3.75	4.84	4.92	1.2	12.4	9.11	1.02	0.909	0.888	8.99	3.97	1.11	0.727
GHLYACDWISI [BEST1_Y227_Y227C]	0.799	0.771	0.676	4.89	0.846	1.06	1.05	0.929	1.3	1.43	1.06	0.902	0.677	1.34	1.21	1.18
QKFMAYLSQGG [HLCS_Y236]	1.23	0.877	1.17	0.517	0.738	1.2	0.446	0.803	0.731	0.745	0.64	0.466	0.487	0.542	0.839	0.945
KLQKYYRQNPD [EHHADH_Y683]	0.948	0.503	0.694	0.371	0.448	0.348	0.482	0.464	0.765	0.591	0.419	0.413	0.417	0.42	0.565	0.474
FISLIYTNFEV [GSTP1_Y109_A114V_YF]	0.774	0.611	0.882	4.4	2.7	3.99	3.47	0.903	1.07	1.77	1.21	0.839	5.37	5.5	2.18	1.79
QMQNPYSSHSS [MUC13_Y501_R503S]	0.921	0.49	0.526	0.432	0.449	1.15	0.446	0.718	0.546	0.659	0.611	0.636	1.26	0.818	0.625	0.467
KWRGQYDVAIK [BTK_Y425]	1.34	1.21	0.935	0.463	0.479	0.491	0.802	0.642	0.399	0.742	0.546	0.527	0.429	0.567	0.676	0.543
EKIANYKEGTF [CLRN1_Y171_YF]	0.91	0.443	0.554	0.498	0.4	0.465	0.543	0.474	0.53	0.823	0.537	0.461	0.408	0.5	0.967	0.724

Second part, led by results:

SH2 binding enrichment (Grb2 SH2)	SH2 binding enrichment (c-Src SH2)	SH2 binding enrichment (SHP2-C SH2)	Sequence	phosphorylation enrichment (MERTK)	phosphorylation enrichment (Hck)	phosphorylation enrichment (Fyn)	phosphorylation enrichment (c-Abl (mouse))	phosphorylation enrichment (EPHB2)	phosphorylation enrichment (EPHB1)	phosphorylation enrichment (Fes)	phosphorylation enrichment (FGFR3)	phosphorylation enrichment (FGFR1)	phosphorylation enrichment (Fer (mouse))	phosphorylation enrichment (c-Src)	phosphorylation enrichment (AncSZ)	phosphorylation enrichment (Jak2)
0.642	0.42	0.891	LNPLIYTLKNA [OR4C46_Y285]	0.463	2.31	2.17	0.474	0.603	0.762	1.08	0.886	0.73	0.545	3.03	0.602	0.343
2.04	1.66	1.99	CTTIHYNFMCT [TP53_Y234_N239T_YF]	0.419	0.501	0.459	0.839	0.485	0.54	1.01	0.752	0.538	0.501	0.551	1.06	0.997
1.43	0.76	1.28	LLREWYLQDPY [SIX3_Y225]	0.606	0.85	1.08	1.11	0.928	0.947	1.52	1.12	0.867	0.938	1.11	1.52	1.11
0.821	0.532	0.694	KKFPDYIQSAM [SGMS2_Y59_I62S_YF]	0.364	0.482	0.401	0.472	0.424	0.348	0.65	0.471	0.479	0.332	0.521	0.621	0.512
1.03	36.8	0.87	VVHSSYDEIEG [SEC24A_Y263]	0.429	0.475	0.498	0.713	0.549	0.51	1.12	0.648	0.493	0.492	0.442	1.04	0.892
0.588	0.588	0.958	IINENYDFLKV [NUP98_Y1664_G1669V_YF]	0.838	2.17	0.512	0.668	0.92	0.794	1.01	0.779	0.862	2.45	0.655	1.05	0.97
1.65	1.36	1.74	YGAHKYHPLPV [OAT_Y55_N54K]	0.442	0.787	0.611	0.498	0.39	0.371	0.892	0.403	0.444	1.08	0.562	0.657	0.557
0.774	0.501	0.465	RRIYSYRGHLW [VHL_Y112_H110Y]	1.24	0.667	0.986	0.776	0.659	1.17	1.68	0.725	1.2	1.02	1.26	1.45	0.691
0.681	0.386	0.906	SEKISYVFMKR [SSX7_Y48_L43S_YF]	0.378	0.46	0.436	0.822	0.597	0.599	1.32	0.75	0.52	0.458	0.412	1.25	1.05
0.981	0.461	0.568	KEINDYVEKGT [SERPINA1_Y184_Q180E]	0.439	0.515	0.514	0.621	0.56	0.513	0.954	0.632	0.558	0.492	0.517	1.21	0.75
0.914	0.63	0.798	SWSTSYSGYRC [NKAPL_Y91_Y96C]	0.443	0.552	0.462	0.751	0.547	0.551	0.993	0.62	0.585	0.532	0.848	0.944	0.98
0.845	0.458	0.722	VMTLDYSKTVV [SETD2_Y770_V768L]	0.372	0.439	0.37	0.643	0.52	0.571	0.738	0.701	0.419	0.449	0.415	0.719	0.775
0.943	0.53	1.34	KLFYIYTSGTT [SLC27A4_Y245]	0.5	0.506	0.455	0.767	0.727	0.61	1.37	0.755	0.449	0.556	0.575	1.24	1.51
0.812	0.444	0.553	KDFTIHNPNLL [VANGL1_Y290_Y290H]	0.453	0.392	0.369	0.574	0.366	0.516	0.829	0.561	0.424	0.353	0.439	0.698	0.654
1.03	0.745	0.646	QITQVYGFFHE [PPP2CA_Y127_D131H_YF]	5.31	14.3	17.8	1.14	1.11	0.788	1.39	1.26	0.647	0.72	9.89	1.67	0.915
0.691	0.385	0.665	RQAQAYRGQRV [TSHR_Y706]	0.831	0.839	1	1.25	0.99	0.564	1.51	1	1.23	0.909	1.36	1.82	1.62
